Tests used:
Assay type in all cases: cell-based
[1] = target: T1, QRFPR (Homo sapiens, UniProt Q96P65); experiment: In situ PLA detection of RAB4-QRFPR double positive endosomes; details: GDF15 stimulation alone; FIG. 7
T1 construct: endogenous in cells
T1 sequence (Q96P65 1-431): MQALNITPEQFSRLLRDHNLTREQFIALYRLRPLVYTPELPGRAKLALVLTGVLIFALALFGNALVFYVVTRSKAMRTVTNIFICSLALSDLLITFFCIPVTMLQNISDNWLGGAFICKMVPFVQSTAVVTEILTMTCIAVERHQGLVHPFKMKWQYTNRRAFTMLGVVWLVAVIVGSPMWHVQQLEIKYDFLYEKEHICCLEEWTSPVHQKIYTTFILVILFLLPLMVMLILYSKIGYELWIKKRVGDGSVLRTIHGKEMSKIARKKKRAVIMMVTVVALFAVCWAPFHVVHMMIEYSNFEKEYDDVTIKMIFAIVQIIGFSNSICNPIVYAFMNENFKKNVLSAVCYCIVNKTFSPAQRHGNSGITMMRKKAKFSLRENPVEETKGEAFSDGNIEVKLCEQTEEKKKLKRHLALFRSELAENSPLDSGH
Procedure: An assay was developed to detect the proximity of RAB4-QRFPR using antibodies against RAB4 and QRFPR.
In short, the cells were serum starved overnight then pre-incubated with blocking antibodies towards extracellular parts of QRFPR for 2 hrs prior to GDF15 treatment (1 μg/ml) for 30 minutes. The levels of formed RAB4-QRFPR complexes were measured by visualization of formed RCA products using the Duolink is PLA system (see FIG. 11).

[2] = target: T1, QRFPR; experiment: In situ PLA detection of CD9-QRFPR proximity; details: GDF15 30 minutes; FIG. 4
Description: The tetraspanin CD9 has dual roles, both in endosome trafficking and in exosome secretion (Mazurov et al.). An in situ PLA assay was developed to detect the proximity of CD9 and QRFPR using antibodies against CD9 and QRFPR. In the absence of GDF15, only a low signal level is observed (FIGS. 4A and 4C).

[3] = tested on: CD14+ cells; experiment: Cytokine secretion by LPS-stimulated CD14+ cells (Proseek assay); details: LPS stimulated CD14+ cells incubated with GDF15
Procedure: CD14+ cells where isolated and cultured in the presence or absence of GDF15 in a LPS stimulated culture.
Buffy coat cell suspension or heparinized blood samples were diluted with sterile, room temperature PBS. Peripheral blood samples are diluted 1:1, whereas buffy coats are diluted to a final volume of 120 ml (in a standard buffy coat this will result in slightly greater dilution than 1:1). The diluted cell suspension was layered onto Ficoll Paque PLUS. For one buffy 4×15 ml aliquots are used (30 ml of diluted cell suspension/tube). Cells were centrifuged at 400×g for 30 min at room temperature and transferred to a new 50 ml tube. Cells were washed once and resuspended in 20 ml PBS.
Mononuclear cell suspension was pelleted by centrifugation. Cells were resuspended in Stemcell buffer at a concentration of 10^8 cells/ml and transferred to a round bottom 14 ml tube. EasySep Positive Selection cocktail at was added at 100 μl/ml cells, mixed by gentle pipetting, and incubated at room temperature for 15 min. 50 μl EasySep Magnetic Nanoparticles per 1 ml cells were added and mixed, and incubated at room temperature for 10 min. Stemcell recommended medium was added to bring the cell suspension to a total volume of 5 ml and mixed by gently pipetting. The tube (without cap) was placed into the magnet and set aside for 5 min. After 5 minutes the supernatant was discarded. CD14+ labelled cells will remain inside the tube. The tube was removed from the magnet and add 5 ml Stemcell recommended medium was added and mixed by gently pipetting. The tube (without cap) was placed into the magnet and set aside for 5 min. The was step was repeated before the cells were resuspended in 5 ml complete RPMI medium. 50 μl of the CD14+ cell suspension was removed and counted to determine total cell number after dilution in Trypan blue solution and mounting on Fast Read 102 Counting Slides.
Adjust CD14+ cell suspension volume to a concentration of 0.833×10^6 cells/ml in complete RPMI medium. 300 μl of cell suspension is added to wells in a 48 well plate well (0.25×10^6 cells per well), and allowed to adhere for 90 min in an incubator at 37° C. Non-adherent cells were removed by removal of the supernatant after gently pipetting the medium. Cells were washed once with 300 μl pre-warmed complete RPMI medium and the medium aspirated off. 300 μl pre-warmed complete RPMI medium was added to each well and the cells were incubate overnight (20-24 h) in a cell incubator at 37° C.
A 17× stock solution of the desired GDF15 modulatory substances was diluted in complete RPMI. (20 μl of substance/well assayed). 20 μl of modulatory substance or medium/carrier (negative control) was added to each well and mixed by gentle pipetting. Cells were incubated for 30 min in a cell incubator at 37° C. A 17×GDF15 solution was prepared by diluting a 100 μg/ml stock solution to a concentration of 8.5 μg/ml (final concentration in culture 0.5 μg/ml) in complete RPMI. 20 μl of diluted GDF15 was added per well, and incubated overnight (18-20 h) in a cell incubator at 37° C.
A 18×LPS solution was prepared by diluting the LPS stock solution to a concentration of 18 ng/ml (final concentration in culture 1 ng/ml) in complete RPMI. 20 μl of LPS or medium (negative control) was added to each well and mixed by gentle pipetting. […]
Secreted proteins from cell cultures where quantified using multiplexed proximity extension assay, Proseek (Assarsson E et al PlosOne 2014) by Olink Proteomics AB (Uppsala Sweden). […]

Substance: GDF15: Growth and differentiation factor 15, from mammalian source or recombinant from E. coli (Abcam, Biovision)
- RAB4-QRFPR double positive endosomes [1]: formation of RAB4-QRFPR double positive endosomes was detected
- CD9-QRFPR complex signal [2]: higher level of signal
- LPS response secretion of IL12 [3]: reduced
- LPS response secretion of TNF [3]: reduced

Source: patent publication US20180282403A1, “AGENTS FOR REDUCING THE ACTIVITY OF GDF15” (GENAGON THERAPEUTICS AB, priority 2015, published 2018)
